The source of these data is PMC5556678 (Structure (London, England : 1993), 2017).

The term stoichiometry N denotes a count of units in the complex or per binding partner.

“And” between values parts separate entries of the source, which are not always exact repeats. Equal values may be shown once.

Data set [1] has as its target BanLec (Musa acuminata, UniProt O22321). Nature of the data set: HPLC depletion assay of released gp120. The data set is classed as binding. The note with it: 2-AB labelled gp120 N-glycans, 0-50 μM BanLec.
Data set [2] deals with BanLec (UniProt Q8L5H4). Nature of the data set: native MS.
For data set [3], the target named is BanLec (UniProt Q8L5H4). Nature of the data set: SEC-MALS. (In general: In gel filtration, larger molecules generally elute earlier.)
The target of data set [4] is BanLec (UniProt Q8L5H4). The data set is described as follows: ion mobility MS.
In data set [5] the target is BanLec (UniProt Q8L5H4). Nature of the data set: SAXS.
Data set [6] addresses BanLec D38G. The data set is described as follows: native MS.
Data set [7] has as its target BanLec Y46K. The data set is described as follows: native MS.
Data set [8] has as its target BanLec D133G. Nature of the data set: native MS.
For data set [9], the system named is BG505 SOSIP.664. The data set is described as follows: Negative-stain electron microscopy of BanLec with soluble Env trimer mimic. The note with it: incubation of BanLec with BG505 SOSIP.664. On the set-up: species or system HIV.
For data set [10], the system named is HIV fusion to HeLa cells. The note with it: ref Swanson et al., 2010; cited from earlier work.

Man5: the “depletion of glycan upon addition of BanLec” value in data set [1] was “not depleted”.

Regarding “BanLec (from UniProt Q8L5H4 1-141) (natural protein)”, the stoichiometry N in data set [2], in data set [3], in data set [4] and in data set [5] was 4 throughout.

`CC(=O)N[C@H]1[C@H](O[C@H]2[C@H](O)[C@@H](NC(C)=O)C(O)O[C@@H]2CO)O[C@H](CO)[C@@H](O[C@@H]2O[C@H](CO[C@H]3O[C@H](CO[C@H]4O[C@H](CO)[C@@H](O)[C@H](O)[C@@H]4O[C@H]4O[C@H](CO)[C@@H](O)[C@H](O)[C@@H]4O)[C@@H](O)[C@H](O[C@H]4O[C@H](CO)[C@@H](O)[C@H](O)[C@@H]4O[C@H]4O[C@H](CO)[C@@H](O)[C@H](O)[C@@H]4O)[C@@H]3O)[C@@H](O)[C@H](O[C@H]3O[C@H](CO)[C@@H](O)[C@H](O)[C@@H]3O[C@H]3O[C@H](CO)[C@@H](O)[C@H](O)[C@@H]3O[C@H]3O[C@H](CO)[C@@H](O)[C@H](O)[C@@H]3O)[C@@H]2O)[C@@H]1O` (some centres unmarked) [Man9]: the “depletion of glycan upon addition of BanLec” value in [1] is recorded as “decreased considerably”.

The molecule BanLec D38G (natural protein) yielded a stoichiometry N in data set [6] of 4.

Regarding BanLec Y46K (natural protein), the stoichiometry N in data set [7] is 2 and 4.

In the case of BanLec D133G (natural protein), in [8], the stoichiometry N is 4.

B1: BanLec: recombinant tetrameric plant (banana) lectin with anti-HIV activity, expressed in E. coli (protein)
chain: MNGAIKVGAWGGNGGSAFDMGPAYRIISVKIFSGDVVDAVDVTFTYYGKTETRHFGGSGGTPHEIVLQEGEYLVGMKGEFGNYHGVVVVGKLGFSTNKKSYGPFGNTGGTPFSLPIAAGKISGFFGRGGDFIDAIGVYLEP
modifications: left off: polyhistidine tag, N-terminal, cleaved
Regarding B1, the “effect on soluble Env trimer mimic by negative-stain EM” value in data set [9] is “aggregation”. In addition, the “IC50, inhibition of HIV fusion to HeLa cells” value in data set [10] is reported as “low-nanomolar range”.
